Article PMC11029812, “Liver-targeted polymeric prodrugs delivered subcutaneously improve tafenoquine therapeutic window for malaria radical cure” (Science Advances, 2024)

Columns and labels:
[1] = Tissue pharmacokinetics of released TQ and its metabolites in liver, plasma and urine (LC-MS/MS); type: in vivo, BALB/c mice; details: mouse, in vivo
[2] = test system: primary NHP hepatocytes; assay: Hepatocyte toxicity in the P. cynomolgi anti-hypnozoite assay; type: cell-based, cynomolgus monkey; details: treatment days 4 to 7 after infection, readout day 8
Procedure: (§1) Cryopreserved primary cynomolgus monkey hepatocytes (lot STX) and hepatocyte culture medium (HCM) (InVitroGro CP medium) were obtained from BioIVT Inc. (Baltimore, MD, USA) and thawed following the manufacturer’s recommendations. Hepatocytes were seeded in 384-well collagen-coated plates and used for experiments within 2 days after seeding as previously described ([52]). Infectious sporozoites were obtained from Anopheles dirus mosquitoes infected with P. cynomolgi B strain and were used to infect the plated primary NHP hepatocytes 2 days after seeding ([52], [102]). HCM was changed the day after infection and every other day thereafter until drug treatment. […]
(§2) Imaging and image analysis of assay plates were completed using an Operetta CLS high-content imaging system and Harmony 4.9 software (PerkinElmer, Waltham, MA, USA). […] Using similar methodology described previously, parasites were counted with the TRITC channel and were identified by area, mean intensity, maximum intensity, and cell roundness parasites ([50], [99]–[102]). […] Percent inhibition (PI) and toxicity values were calculated relative to in-plate negative controls for parasites and hepatocytes, respectively, using GraphPad Prism software (GraphPad Software Inc., USA, Windows version 9.5.1) using the average of experimental and biological replicates. […]

[3] = test system: P. cynomolgi hypnozoites; assay: P. cynomolgi anti-hypnozoite assay in primary NHP hepatocytes (radical cure mode); type: cell-based; details: treatment days 4 to 7 after infection, readout day 8
Procedure: as §1, §2

For p(GalNAc-MA-co-SVCTQ-MA) [pSVCTQ], the “AUC, liver” value ([1]; iv, 25 mg/kg) was 2550 μg/g liver*hour, the “AUC, plasma” value ([1]; iv, 25 mg/kg) was 15.53 μg/ml plasma* hour and the “Cmax, liver” value ([1]; iv, 25 mg/kg) was 57 μg/g liver. The “Cmax, plasma” value ([1]; iv, 25 mg/kg) was 0.20 μg/ml plasma, the “Liver:plasma AUC ratio” value ([1]; iv, 25 mg/kg) was 164 and the “Tmax, liver” value ([1]; iv, 25 mg/kg) was 8 h. The “Tmax, plasma” value ([1]; iv, 25 mg/kg) was 2 h, the “OQTQ metabolite in urine” value ([1]; sc) was “high level” and the “Reduction of the Cmax of TQ in blood” value ([1]; sc) was “over 75%”. For the same substance, the “Reduction of the blood AUC over 14 days” value ([1]; sc) was “more than 50%”, the “AUC, liver” value ([1]; sc, 10 mg/kg) was 2422 μg/g liver*hour and the “AUC, plasma” value ([1]; sc, 10 mg/kg) was 9.617 μg/ml plasma* hour. The “CTQ metabolite in plasma” value ([1]; sc, 10 mg/kg) was “absence”, the “Cmax, liver” value ([1]; sc, 10 mg/kg) was 25 μg/g liver and the “Cmax, plasma” value ([1]; sc, 10 mg/kg) was 0.10 μg/ml plasma. The “Liver:plasma AUC ratio” value ([1]; sc, 10 mg/kg) was 252, the “OQTQ metabolite in plasma” value ([1]; sc, 10 mg/kg) was “low” and the “Tmax, liver” value ([1]; sc, 10 mg/kg) was 8 h. For the same substance, the “Tmax, plasma” value ([1]; sc, 10 mg/kg) was 24 h, the IC50 [2] was greater than 161 µM and the IC50 [3] was 25.6 µM.
